Experimental data taken from patent US11499162B2, “Plants having increased tolerance to herbicides” (BASF SE, priority 2016, dated 2022).
Numbering of substitutions follows the chain as printed. Names may count otherwise.

B1: Y85LL92AY93LD128AD250S: mutated TriA variant of SEQ ID NO: 2 (protein)
chain: MQTLSIQHGTLVTMDQYRRVLGDSWVHVQDGRIVALGVHAESVPPPADRVIDARGKVVLPGFINAHTHVNQILLRGGPSHGRQLLDWLFNVALPGQKAMRPEDVAVAVRLYCAEAVRSGITTINDNAASAIYPGNIEAAMAVYGEVGVRVVYARMFFDRMDGRIQGYVDALKARSPQVELCSIMEETAVAKDRITALSDQYHGTAGGRISVWPAPAITPAVTVEGMRWAQAFARDRAVMWTLHMAESDHSERLHWMSPAEYMECYGLLDERLQVAHCVYFDRKDVRLLHRHNVKVASQVVSNAYLGSGVAPVPEMVERGMAVGIGTDDGNCNDSVNMIGDMKFMAHIHRAVHRDADVLTPEKILEMATIDGARSLGMDHEIGSIETGKRADLILLDLRHPQTTPHHHLAATIVFQAYGNEVDTVLIDGNVVMENRRLSFLPPERELAFLEEAQSRATAILQRANMVANPAWRSL
modifications: Pseudomonas
B2: L92AY93LD250S: mutated TriA variant of SEQ ID NO: 2 (protein)
chain: B1 chain with L85Y, A128D
modifications: Pseudomonas
B3: N70VQ71T: mutated TriA variant of SEQ ID NO: 2 (protein)
chain: B1 chain with N70V, Q71T, L85Y, A92L, L93Y, A128D, S250D
modifications: Pseudomonas
B4: L88AL92AY93L: mutated TriA variant of SEQ ID NO: 2 (protein)
chain: B1 chain with L85Y, L88A, A128D, S250D
modifications: Pseudomonas
B5: L88AL92AY93V: mutated TriA variant of SEQ ID NO: 2 (protein)
chain: B1 chain with L85Y, L88A, L93V, A128D, S250D
modifications: Pseudomonas
B6: Y85LL88AL92AY93L: mutated TriA variant of SEQ ID NO: 2 (protein)
chain: B1 chain with L88A, A128D, S250D
modifications: Pseudomonas
B7: Y85LL88AL92AY93V: mutated TriA variant of SEQ ID NO: 2 (protein)
chain: B1 chain with L88A, L93V, A128D, S250D
modifications: Pseudomonas
B8: Y85LL88AL92AY93LQ96TD128G: mutated TriA variant of SEQ ID NO: 2 (protein)
chain: B1 chain with L88A, Q96T, A128G, S250D
modifications: Pseudomonas
B9: Y85LL88AL92AY93VQ96TD128G: mutated TriA variant of SEQ ID NO: 2 (protein)
chain: B1 chain with L88A, L93V, Q96T, A128G, S250D
modifications: Pseudomonas
B10: Y85LL88AF89AL92AY93LQ96TD128G: mutated TriA variant of SEQ ID NO: 2 (protein)
chain: B1 chain with L88A, F89A, Q96T, A128G, S250D
modifications: Pseudomonas
B11: Y85LL88AF89AL92AY93VQ96TD128G: mutated TriA variant of SEQ ID NO: 2 (protein)
chain: B1 chain with L88A, F89A, L93V, Q96T, A128G, S250D
modifications: Pseudomonas
B12: N70TQ71V: mutated TriA variant of SEQ ID NO: 2 (protein)
chain: B1 chain with N70T, Q71V, L85Y, A92L, L93Y, A128D, S250D
modifications: Pseudomonas
B13: Q71NL92AY93LQ96TD128G: mutated TriA variant of SEQ ID NO: 2 (protein)
chain: B1 chain with Q71N, L85Y, Q96T, A128G, S250D
modifications: Pseudomonas
B14: L92AY93LQ96TD128G: mutated TriA variant of SEQ ID NO: 2 (protein)
chain: B1 chain with L85Y, Q96T, A128G, S250D
modifications: Pseudomonas
B15: L92AY93V: mutated TriA variant of SEQ ID NO: 2 (protein)
chain: B1 chain with L85Y, L93V, A128D, S250D
modifications: Pseudomonas
B16: L92AY93I: mutated TriA variant of SEQ ID NO: 2 (protein)
chain: B1 chain with L85Y, L93I, A128D, S250D
modifications: Pseudomonas
B17: L92AY93VM155TF157L: mutated TriA variant of SEQ ID NO: 2 (protein)
chain: B1 chain with L85Y, L93V, A128D, M155T, F157L, S250D
modifications: Pseudomonas
B18: L92AY93LM155TF157L: mutated TriA variant of SEQ ID NO: 2 (protein)
chain: B1 chain with L85Y, A128D, M155T, F157L, S250D
modifications: Pseudomonas
B19: L92AY93LF157L: mutated TriA variant of SEQ ID NO: 2 (protein)
chain: B1 chain with L85Y, A128D, F157L, S250D
modifications: Pseudomonas
B20: L88AL92AY93LF157L: mutated TriA variant of SEQ ID NO: 2 (protein)
chain: B1 chain with L85Y, L88A, A128D, F157L, S250D
modifications: Pseudomonas
B21: W87FL92AY93LF157L: mutated TriA variant of SEQ ID NO: 2 (protein)
chain: B1 chain with L85Y, W87F, A128D, F157L, S250D
modifications: Pseudomonas
B22: W87HL92AY93LF157L: mutated TriA variant of SEQ ID NO: 2 (protein)
chain: B1 chain with L85Y, W87H, A128D, F157L, S250D
modifications: Pseudomonas
B23: M155L: mutated TriA variant of SEQ ID NO: 2 (protein)
chain: B1 chain with L85Y, A92L, L93Y, A128D, M155L, S250D
modifications: Pseudomonas
B24: W87AL92AY93LF157L: mutated TriA variant of SEQ ID NO: 2 (protein)
chain: B1 chain with L85Y, W87A, A128D, F157L, S250D
modifications: Pseudomonas
B25: Y85LL88AF89AL92AY93LQ96TD128GM155VF157L: mutated TriA variant of SEQ ID NO: 2 (protein)
chain: B1 chain with L88A, F89A, Q96T, A128G, M155V, F157L, S250D
modifications: Pseudomonas
B26: Y85LL88AF89AL92AY93VQ96TD128GM155VF157L: mutated TriA variant of SEQ ID NO: 2 (protein)
chain: B1 chain with L88A, F89A, L93V, Q96T, A128G, M155V, F157L, S250D
modifications: Pseudomonas
B27: D128G: mutated TriA variant of SEQ ID NO: 2 (protein)
chain: B1 chain with L85Y, A92L, L93Y, A128G, S250D
modifications: Pseudomonas
B28: D128P: mutated TriA variant of SEQ ID NO: 2 (protein)
chain: B1 chain with L85Y, A92L, L93Y, A128P, S250D
modifications: Pseudomonas

Assay type: biochemical
Details: pH 7.2
Procedure, shortened: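 E. coli resting cells expressing His-tagged TriA incubated with azines, melamine or atrazine. Enzyme in 25 mM sodium phosphate pH 7.2 at 30 °C, substrate 1–10 nM. Loss of parent and formation of OH-metabolite followed by UPLC-HR-MS; % degradation relative to empty-vector cells.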

| Molecule | Degradation in % of 6-cyclopentyl-N4-(2,3,4,5,6-pentafluorophenyl)-1,3,5-triazine-2,4-diamine | Degradation in % of Melamine |
| --- | --- | --- |
| B1 | 9% | 0% |
| B2 | 99% | 0% |
| B3 | 0% | 0% |
| B4 | 35% | 0% |
| B5 | 25% | 0% |
| B6 | 13% | 0% |
| B7 | 13% | 0% |
| B8 | 12% | 0% |
| B9 | 14% | 0% |
| B10 | 9% | 0% |
| B11 | 13% | 0% |
| B12 | 3% | 0% |
| B13 | 85% | 0% |
| B14 | 94% | 0% |
| B15 | 58% | 0% |
| B16 | 75% | 0% |
| B17 | 99% | 0% |
| B18 | 99% | 41% |
| B19 | 97% | 43% |
| B20 | 99% | 1% |
| B21 | 99% | 1% |
| B22 | 18% | 0% |
| B23 | 0% | 4% |
| B24 | 12% | 3% |
| B25 | 13% | 1% |
| B26 | 13% | 6% |
| B27 | 0% | 0% |
| B28 | 0% | 0% |
